Experimental data: article PMC2150872 (The Journal of Cell Biology, 2001)

What was measured:
wt K5–K14 filaments = biological target: T1, wt K5–K14 filaments (human, UniProt P13647 1-590; P02533 1-472); assay: co-sedimentation
T1 sequence (looked up) 1: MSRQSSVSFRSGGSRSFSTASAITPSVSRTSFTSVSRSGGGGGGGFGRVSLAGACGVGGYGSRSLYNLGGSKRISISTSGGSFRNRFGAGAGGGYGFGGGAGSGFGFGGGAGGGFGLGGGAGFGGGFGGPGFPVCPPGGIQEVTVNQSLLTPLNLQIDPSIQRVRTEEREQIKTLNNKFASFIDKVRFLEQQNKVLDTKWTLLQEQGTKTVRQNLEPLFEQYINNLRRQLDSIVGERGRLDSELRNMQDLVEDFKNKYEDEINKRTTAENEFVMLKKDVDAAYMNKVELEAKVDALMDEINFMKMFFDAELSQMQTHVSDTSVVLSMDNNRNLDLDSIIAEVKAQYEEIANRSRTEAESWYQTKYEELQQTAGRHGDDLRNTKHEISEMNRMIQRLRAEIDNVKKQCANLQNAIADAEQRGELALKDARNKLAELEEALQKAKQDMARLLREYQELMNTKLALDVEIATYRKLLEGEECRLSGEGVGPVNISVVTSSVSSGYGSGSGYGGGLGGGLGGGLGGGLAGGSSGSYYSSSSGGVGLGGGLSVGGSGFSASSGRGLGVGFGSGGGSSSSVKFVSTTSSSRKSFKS
T1 sequence (looked up) 2: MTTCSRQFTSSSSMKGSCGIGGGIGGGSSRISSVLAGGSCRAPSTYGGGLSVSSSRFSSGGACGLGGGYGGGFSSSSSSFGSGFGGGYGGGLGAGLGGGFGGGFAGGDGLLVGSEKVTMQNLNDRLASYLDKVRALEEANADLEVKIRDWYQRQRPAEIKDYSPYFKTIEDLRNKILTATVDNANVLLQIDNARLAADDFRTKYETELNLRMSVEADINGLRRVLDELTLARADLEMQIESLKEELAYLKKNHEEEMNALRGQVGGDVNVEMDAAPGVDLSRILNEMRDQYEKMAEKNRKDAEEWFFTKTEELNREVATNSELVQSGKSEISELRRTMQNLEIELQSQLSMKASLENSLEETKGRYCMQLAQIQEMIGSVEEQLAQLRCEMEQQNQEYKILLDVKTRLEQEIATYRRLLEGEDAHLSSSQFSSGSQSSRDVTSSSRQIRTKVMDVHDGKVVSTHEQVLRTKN

keratin 5 = biological target: T2, keratin 5 (human, UniProt P13647 1-590); assay: filament reconstitution
T2 sequence (looked up): T1 sequence (looked up) 1

Binder SSSQFSSGSQSSRDVTSSSRQIRTKVMDVHDGKVVSTHEQVLRTKN (domain or fragment) [His-T14 (His-tagged nonhelical tail domain of human keratin 14)] has a Kd (wt K5–K14 filaments) of about 2 µM.

B1: keratin 19 (natural protein, human, UniProt P08727 1-400, looked up)
chain: MTSYSYRQSSATSSFGGLGGGSVRFGPGVAFRAPSIHGGSGGRGVSVSSARFVSSSSSGAYGGGYGGVLTASDGLLAGNEKLTMQNLNDRLASYLDKVRALEAANGELEVKIRDWYQKQGPGPSRDYSHYYTTIQDLRDKILGATIENSRIVLQIDNARLAADDFRTKFETEQALRMSVEADINGLRRVLDELTLARTDLEMQIEGLKEELAYLKKNHEEEISTLRGQVGGQVSVEVDSAPGTDLAKILSDMRSQYEVMAEQNRKDAEAWFTSRTEELNREVAGHTEQLQMSRSEVTDLRRTLQGLEIELQSQLSMKAALEDTLAETEARFGAQLAHIQALISGIEAQLGDVRADSERQNQEYQRLMDIKSRLEQEIATYRSLLEGQEDHYNNLSASKVL
B1: binds (keratin 5).
